Reference: patent US7807788
Values joined by “and” are separate entries in the source; they are usually repeats but may differ in a detail not shown here. Equal values may be shown once.

Columns and labels:
IL-13 16 mer peptide 23 = target: T1, IL-13 16 mer peptide 23; test: 16 mer peptide ELISA; peptide 23
T1 sequence (peptide, N-terminal biotin; C-terminal amide): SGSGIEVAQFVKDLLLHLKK

IL-13 16 mer peptide 12 = target: T2, IL-13 16 mer peptide 12; test: 16 mer peptide ELISA; peptide 12
T2 sequence (peptide, N-terminal biotin; C-terminal amide): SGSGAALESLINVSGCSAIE

IL-13 16 mer peptide 10 = target: T3, IL-13 16 mer peptide 10; test: 16 mer peptide ELISA; peptide 10
T3 sequence (peptide, N-terminal biotin; C-terminal amide): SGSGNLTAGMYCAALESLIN

IL-13 16 mer peptide 30 = target: T4, IL-13 16 mer peptide 30; test: 16 mer peptide ELISA; peptide 30
T4 sequence (peptide, N-terminal biotin; C-terminal amide): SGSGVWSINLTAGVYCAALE

IL-13 16 mer peptide 21 = target: T5, IL-13 16 mer peptide 21; test: 16 mer peptide ELISA; peptide 21
T5 sequence (peptide, N-terminal biotin; C-terminal amide): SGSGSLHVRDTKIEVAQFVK

IL-13 16 mer peptide 39 = target: T6, IL-13 16 mer peptide 39; test: 16 mer peptide ELISA; peptide 39
T6 sequence (peptide, N-terminal biotin; C-terminal amide): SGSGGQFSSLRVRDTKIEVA

IL-13 16 mer peptide 7 = target: T7, IL-13 16 mer peptide 7; test: 16 mer peptide ELISA; peptide 7
T7 sequence (peptide, N-terminal biotin; C-terminal amide): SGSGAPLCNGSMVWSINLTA

IL-13 16 mer peptide 38 = target: T8, IL-13 16 mer peptide 38; test: 16 mer peptide ELISA; peptide 38
T8 sequence (peptide, N-terminal biotin; C-terminal amide): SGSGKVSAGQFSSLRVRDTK

IL-13 16 mer peptide 2 = target: T9, IL-13 16 mer peptide 2; test: 16 mer peptide ELISA; peptide 2
T9 sequence (peptide, N-terminal biotin; C-terminal amide): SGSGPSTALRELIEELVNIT

IL-13 16 mer peptide 3 = target: T10, IL-13 16 mer peptide 3; test: 16 mer peptide ELISA; peptide 3
T10 sequence (peptide, N-terminal biotin; C-terminal amide): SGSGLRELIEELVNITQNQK

IL-13 16 mer peptide 37 = target: T11, IL-13 16 mer peptide 37; test: 16 mer peptide ELISA; peptide 37
T11 sequence (peptide, N-terminal biotin; C-terminal amide): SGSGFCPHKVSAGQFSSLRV

IL-13 16 mer peptide 13 = target: T12, IL-13 16 mer peptide 13; test: 16 mer peptide ELISA; peptide 13
T12 sequence (peptide, N-terminal biotin; C-terminal amide): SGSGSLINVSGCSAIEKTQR

IL-13 16 mer peptide 28 = target: T13, IL-13 16 mer peptide 28; test: 16 mer peptide ELISA; peptide 28
T13 sequence (peptide, N-terminal biotin; C-terminal amide): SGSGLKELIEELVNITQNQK

IL-13 16 mer peptide 11 = target: T14, IL-13 16 mer peptide 11; test: 16 mer peptide ELISA; peptide 11
T14 sequence (peptide, N-terminal biotin; C-terminal amide): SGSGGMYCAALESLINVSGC

IL-13 16 mer peptide 32 = target: T15, IL-13 16 mer peptide 32; test: 16 mer peptide ELISA; peptide 32
T15 sequence (peptide, N-terminal biotin; C-terminal amide): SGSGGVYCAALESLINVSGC

IL-13 16 mer peptide 20 = target: T16, IL-13 16 mer peptide 20; test: 16 mer peptide ELISA; peptide 20
T16 sequence (peptide, N-terminal biotin; C-terminal amide): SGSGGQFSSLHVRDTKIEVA

IL-13 16 mer peptide 35 = target: T17, IL-13 16 mer peptide 35; test: 16 mer peptide ELISA; peptide 35
T17 sequence (peptide, N-terminal biotin; C-terminal amide): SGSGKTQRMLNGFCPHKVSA

IL-13 16 mer peptide 40 = target: T18, IL-13 16 mer peptide 40; test: 16 mer peptide ELISA; peptide 40
T18 sequence (peptide, N-terminal biotin; C-terminal amide): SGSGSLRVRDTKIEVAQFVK

IL-13 16 mer peptide 18 = target: T19, IL-13 16 mer peptide 18; test: 16 mer peptide ELISA; peptide 18
T19 sequence (peptide, N-terminal biotin; C-terminal amide): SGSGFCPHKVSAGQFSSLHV

IL-13 16 mer peptide 4 = target: T20, IL-13 16 mer peptide 4; test: 16 mer peptide ELISA; peptide 4
T20 sequence (peptide, N-terminal biotin; C-terminal amide): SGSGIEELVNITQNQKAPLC

IL-13 16 mer peptide 14 = target: T21, IL-13 16 mer peptide 14; test: 16 mer peptide ELISA; peptide 14
T21 sequence (peptide, N-terminal biotin; C-terminal amide): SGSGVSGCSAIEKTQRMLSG

IL-13 16 mer peptide 19 = target: T22, IL-13 16 mer peptide 19; test: 16 mer peptide ELISA; peptide 19
T22 sequence (peptide, N-terminal biotin; C-terminal amide): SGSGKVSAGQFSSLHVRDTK

IL-13 16 mer peptide 31 = target: T23, IL-13 16 mer peptide 31; test: 16 mer peptide ELISA; peptide 31
T23 sequence (peptide, N-terminal biotin; C-terminal amide): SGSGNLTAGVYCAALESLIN

IL-13 16 mer peptide 42 = target: T24, IL-13 16 mer peptide 42; test: 16 mer peptide ELISA; peptide 42
T24 sequence (peptide, N-terminal biotin; C-terminal amide): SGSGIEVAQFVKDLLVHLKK

IL-13 16 mer peptide 36 = target: T25, IL-13 16 mer peptide 36; test: 16 mer peptide ELISA; peptide 36
T25 sequence (peptide, N-terminal biotin; C-terminal amide): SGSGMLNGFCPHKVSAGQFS

IL-13 16 mer peptide 22 = target: T26, IL-13 16 mer peptide 22; test: 16 mer peptide ELISA; peptide 22
T26 sequence (peptide, N-terminal biotin; C-terminal amide): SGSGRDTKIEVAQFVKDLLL

IL-13 16 mer peptide 34 = target: T27, IL-13 16 mer peptide 34; test: 16 mer peptide ELISA; peptide 34
T27 sequence (peptide, N-terminal biotin; C-terminal amide): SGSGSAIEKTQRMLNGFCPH

IL-13 16 mer peptide 15 = target: T28, IL-13 16 mer peptide 15; test: 16 mer peptide ELISA; peptide 15
T28 sequence (peptide, N-terminal biotin; C-terminal amide): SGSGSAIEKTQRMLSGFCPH

IL-13 16 mer peptide 33 = target: T29, IL-13 16 mer peptide 33; test: 16 mer peptide ELISA; peptide 33
T29 sequence (peptide, N-terminal biotin; C-terminal amide): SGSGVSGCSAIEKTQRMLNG

IL-13 16 mer peptide 17 = target: T30, IL-13 16 mer peptide 17; test: 16 mer peptide ELISA; peptide 17
T30 sequence (peptide, N-terminal biotin; C-terminal amide): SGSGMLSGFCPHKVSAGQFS

IL-13 16 mer peptide 6 = target: T31, IL-13 16 mer peptide 6; test: 16 mer peptide ELISA; peptide 6
T31 sequence (peptide, N-terminal biotin; C-terminal amide): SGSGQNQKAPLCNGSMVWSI

IL-13 16 mer peptide 29 = target: T32, IL-13 16 mer peptide 29; test: 16 mer peptide ELISA; peptide 29
T32 sequence (peptide, N-terminal biotin; C-terminal amide): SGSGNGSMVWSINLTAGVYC

IL-13 16 mer peptide 27 = target: T33, IL-13 16 mer peptide 27; test: 16 mer peptide ELISA; peptide 27
T33 sequence (peptide, N-terminal biotin; C-terminal amide): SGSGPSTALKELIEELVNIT

IL-13 16 mer peptide 16 = target: T34, IL-13 16 mer peptide 16; test: 16 mer peptide ELISA; peptide 16
T34 sequence (peptide, N-terminal biotin; C-terminal amide): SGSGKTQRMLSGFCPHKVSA

IL-13 16 mer peptide 8 = target: T35, IL-13 16 mer peptide 8; test: 16 mer peptide ELISA; peptide 8
T35 sequence (peptide, N-terminal biotin; C-terminal amide): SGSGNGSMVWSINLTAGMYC

IL-13 16 mer peptide 9 = target: T36, IL-13 16 mer peptide 9; test: 16 mer peptide ELISA; peptide 9
T36 sequence (peptide, N-terminal biotin; C-terminal amide): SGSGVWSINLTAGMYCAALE

IL-13 16 mer peptide 5 = target: T37, IL-13 16 mer peptide 5; test: 16 mer peptide ELISA; peptide 5
T37 sequence (peptide, N-terminal biotin; C-terminal amide): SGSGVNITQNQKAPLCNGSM

IL-13 16 mer peptide 41 = target: T38, IL-13 16 mer peptide 41; test: 16 mer peptide ELISA; peptide 41
T38 sequence (peptide, by the resolver, N-terminal biotin on the SGSG spacer; C-terminal amide): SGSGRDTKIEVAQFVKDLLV

B1: mouse monoclonal antibody 6A1 (antibody, mouse IgG1, V domains shown)
VH: EIQLQQSVAELVRPGASVRLSCTASGFYIKDTYMHWVIQRPEQGLEWIGTIDPANGNTKYVPKFQGKATITADTSSNTAYLRLSSLTSEDTAIYYCARSIYDDYHYDDYYAMDYWGQGTSVTVSS
VL: DVLMTQTPLSLPVSLGDQASISCRSSQNIVHINGNTYLEWYLQKPGQSPKLLIYKISDRFSGVPDRFSGSGSGTDFTLKISRVEAEDLGVYYCFQGSHVPWTFGGGTKLEIK
Q: With B1 as the binder, how does the absorbance at 490 nm (IL-13 16 mer peptide 23) read?
A: 0.144 A490 and 0.135 A490

Q: What about the absorbance at 490 nm (IL-13 16 mer peptide 12) of the same binder?
A: 0.075 A490 and 0.062 A490

Q: What about the absorbance at 490 nm (IL-13 16 mer peptide 10) of the same binder?
A: 0.075 A490 and 0.064 A490

Q: What about the absorbance at 490 nm (IL-13 16 mer peptide 30) of the same binder?
A: 0.062 A490

Q: And the absorbance at 490 nm (IL-13 16 mer peptide 21)?
A: 0.061 A490 and 0.078 A490

Q: And the absorbance at 490 nm (IL-13 16 mer peptide 39)?
A: 0.057 A490 and 0.055 A490

Q: And the absorbance at 490 nm (IL-13 16 mer peptide 7)?
A: 0.061 A490 and 0.072 A490

Q: And the absorbance at 490 nm (IL-13 16 mer peptide 38)?
A: 0.067 A490 and 0.056 A490

Q: And the absorbance at 490 nm (IL-13 16 mer peptide 2)?
A: 0.057 A490 and 0.068 A490

Q: And the absorbance at 490 nm (IL-13 16 mer peptide 3)?
A: 0.067 A490 and 0.07 A490

Q: And the absorbance at 490 nm (IL-13 16 mer peptide 37)?
A: 0.068 A490 and 0.063 A490

Q: And the absorbance at 490 nm (IL-13 16 mer peptide 13)?
A: 0.066 A490 and 0.063 A490

Q: What about the absorbance at 490 nm (IL-13 16 mer peptide 28) of the same binder?
A: 0.074 A490 and 0.078 A490

Q: What about the absorbance at 490 nm (IL-13 16 mer peptide 11) of the same binder?
A: 0.064 A490 and 0.061 A490

Q: What about the absorbance at 490 nm (IL-13 16 mer peptide 32) of the same binder?
A: 0.071 A490 and 0.057 A490

Q: What about the absorbance at 490 nm (IL-13 16 mer peptide 20) of the same binder?
A: 0.06 A490 and 0.104 A490

Q: What about the absorbance at 490 nm (IL-13 16 mer peptide 35) of the same binder?
A: 0.089 A490 and 0.09 A490

Q: And the absorbance at 490 nm (IL-13 16 mer peptide 40)?
A: 0.06 A490

Q: And the absorbance at 490 nm (IL-13 16 mer peptide 18)?
A: 0.073 A490 and 0.09 A490

Q: What about the absorbance at 490 nm (IL-13 16 mer peptide 4) of the same binder?
A: 0.079 A490 and 0.105 A490

Q: What about the absorbance at 490 nm (IL-13 16 mer peptide 14) of the same binder?
A: 0.119 A490 and 0.115 A490

Q: And the absorbance at 490 nm (IL-13 16 mer peptide 19)?
A: 0.077 A490 and 0.063 A490

Q: And the absorbance at 490 nm (IL-13 16 mer peptide 31)?
A: 0.064 A490 and 0.056 A490

Q: And the absorbance at 490 nm (IL-13 16 mer peptide 42)?
A: 0.104 A490 and 0.108 A490

Q: What about the absorbance at 490 nm (IL-13 16 mer peptide 36) of the same binder?
A: 0.073 A490 and 0.074 A490

Q: And the absorbance at 490 nm (IL-13 16 mer peptide 22)?
A: 0.09 A490 and 0.076 A490

Q: What about the absorbance at 490 nm (IL-13 16 mer peptide 34) of the same binder?
A: 0.082 A490 and 0.067 A490

Q: And the absorbance at 490 nm (IL-13 16 mer peptide 15)?
A: 0.081 A490 and 0.129 A490

Q: What about the absorbance at 490 nm (IL-13 16 mer peptide 33) of the same binder?
A: 0.088 A490 and 0.084 A490

Q: What about the absorbance at 490 nm (IL-13 16 mer peptide 17) of the same binder?
A: 0.064 A490 and 0.06 A490

Q: And the absorbance at 490 nm (IL-13 16 mer peptide 6)?
A: 0.072 A490 and 0.075 A490

Q: What about the absorbance at 490 nm (IL-13 16 mer peptide 29) of the same binder?
A: 0.098 A490 and 0.071 A490

Q: What about the absorbance at 490 nm (IL-13 16 mer peptide 27) of the same binder?
A: 0.06 A490 and 0.082 A490

Q: And the absorbance at 490 nm (IL-13 16 mer peptide 16)?
A: 0.099 A490 and 0.141 A490

Q: And the absorbance at 490 nm (IL-13 16 mer peptide 8)?
A: 0.084 A490 and 0.071 A490

Q: What about the absorbance at 490 nm (IL-13 16 mer peptide 9) of the same binder?
A: 0.061 A490 and 0.07 A490

Q: What about the absorbance at 490 nm (IL-13 16 mer peptide 5) of the same binder?
A: 0.063 A490 and 0.065 A490

Q: And the absorbance at 490 nm (IL-13 16 mer peptide 41)?
A: 0.058 A490
